This is an account of results in US10215752 (MIT, dated 2019).

B1: His-tag p16 (P42771) (other, human)
chain: MEPAAGSSMEPSADWLATAAARGRVEEVRALLEAGALPNAPNSYGRRPIQVMMMGSARVAELLLLHGAEPNCADPATLTRPVHDAAREGFLDTLVVLHRAGARLDVRDAWGRLPVDLAEELGHRDVARYLRAAAGGTRGSNHARIDAAEGPSDIPDHHHHHH
notes: Capture protein, expressed on the chip by cell-free synthesis with a His-tag
B3: His-tag CDK4 (P11802) (enzyme, human)
chain: MATSRYEPVAEIGVGAYGTVYKARDPHSGHFVALKSVRVPNGGGGGGGLPISTVREVALLRRLEAFEHPNVVRLMDVCATSRTDREIKVTLVFEHVDQDLRTYLDKAPPPGLPAETIKDLMRQFLRGLDFLHANCIVHRDLKPENILVTSGGTVKLADFGLARIYSYQMALTPVVVTLWYRAPEVLLQSTYATPVDMWSVGCIFAEMFRRKPLFCGNSEADQLGKIFDLIGLPPEDDWPRDVSLPRGAFPPRGPRPVQSVVPEMEESGAQLLLEMLTFNPHKRISAFRALQHSYLHKDEGNPEHHHHHH
notes: as for B1
B4: His-tag Jun (P05412) (other, human)
chain: MTAKMETTFYDDALNASFLPSESGPYGYSNPKILKQSMTLNLADPVGSLKPHLRAKNSDLLTSPDVGLLKLASPELERLIIQSSNGHITTTPTPTQFLCPKNVTDEQEGFAEGFVRALAELHSQNTLPSVTSAAQPVNGAGMVAPAVASVAGGSGSGGFSASLHSEPPVYANLSNFNPGALSSGGGAPSYGAAGLAFPAQPQQQQQPPHHLPQQMPVQHPRLQALKEEPQTVPEMPGETPPLSPIDMESQERIKAERKRMRNRIAASKCRKRKLERIARLEEKVKTLKAQNSELASTANMLREQVAQLKQKVMNHVNSGCQLMLTQQLQTFHHHHHH
notes: as for B1
B6: Jun (P05412) without His-tag (other, human, UniProt P05412 1-331, looked up)
chain: MTAKMETTFYDDALNASFLPSESGPYGYSNPKILKQSMTLNLADPVGSLKPHLRAKNSDLLTSPDVGLLKLASPELERLIIQSSNGHITTTPTPTQFLCPKNVTDEQEGFAEGFVRALAELHSQNTLPSVTSAAQPVNGAGMVAPAVASVAGGSGSGGFSASLHSEPPVYANLSNFNPGALSSGGGAPSYGAAGLAFPAQPQQQQQPPHHLPQQMPVQHPRLQALKEEPQTVPEMPGETPPLSPIDMESQERIKAERKRMRNRIAASKCRKRKLERIARLEEKVKTLKAQNSELASTANMLREQVAQLKQKVMNHVNSGCQLMLTQQLQTF
notes: also called Jun (noHis)

Where two headings read alike, the source gives them in different places.

Assay [1] addresses B6. As to the kind of experiment: nIR fluorescence spectra (1000-1100 nm) of one SWNT/chitosan Ni-NTA array spot before expression, after the His-tag capture protein and after the analyte protein without His-tag; pair label = capture-analyte.
Assay [2] deals with T1, Fos (P01100) without His-tag (human, UniProt P01100 1-380).
T1 construct: also called Fos (noHis)
T1 sequence (P01100 whole entry, one chain of several): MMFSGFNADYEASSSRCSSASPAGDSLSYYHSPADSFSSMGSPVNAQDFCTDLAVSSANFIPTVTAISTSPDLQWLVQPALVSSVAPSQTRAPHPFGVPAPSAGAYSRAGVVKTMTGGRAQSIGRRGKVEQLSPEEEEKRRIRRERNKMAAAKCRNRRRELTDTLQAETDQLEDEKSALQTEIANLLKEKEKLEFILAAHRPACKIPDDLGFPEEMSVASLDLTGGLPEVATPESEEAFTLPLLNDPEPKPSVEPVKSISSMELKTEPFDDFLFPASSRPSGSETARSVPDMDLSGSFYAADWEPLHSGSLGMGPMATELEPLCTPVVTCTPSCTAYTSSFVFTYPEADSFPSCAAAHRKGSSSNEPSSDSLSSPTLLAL
As to the kind of experiment: label-free nIR fluorescence (1045 nm) of SWNT/chitosan Ni-NTA array spots; His-tag capture protein expressed on the spot, then analyte protein without His-tag added; pair label = capture-analyte.

Assay [3] has as its target B4. As to the kind of experiment: nIR fluorescence spectra (1000-1100 nm) of one SWNT/chitosan Ni-NTA array spot before expression, after the His-tag capture protein and after the analyte protein without His-tag; pair label = capture-analyte.
The target in the assay “His-tag CDK4 (P11802)” is B3. Kind of assay: change of the Ni2+-SWNT distance on adding the analyte, calculated by the Förster equation from nIR fluorescence of the SWNT/chitosan Ni-NTA array.
In assay [4] the target is T2, His-tag Fos (P01100) (human, UniProt P01100 1-380).
T2 construct: Capture protein, expressed on the chip by cell-free synthesis with a His-tag
T2 sequence (P01100 other isoform, or with tags, fused parts or gaps limits assumed): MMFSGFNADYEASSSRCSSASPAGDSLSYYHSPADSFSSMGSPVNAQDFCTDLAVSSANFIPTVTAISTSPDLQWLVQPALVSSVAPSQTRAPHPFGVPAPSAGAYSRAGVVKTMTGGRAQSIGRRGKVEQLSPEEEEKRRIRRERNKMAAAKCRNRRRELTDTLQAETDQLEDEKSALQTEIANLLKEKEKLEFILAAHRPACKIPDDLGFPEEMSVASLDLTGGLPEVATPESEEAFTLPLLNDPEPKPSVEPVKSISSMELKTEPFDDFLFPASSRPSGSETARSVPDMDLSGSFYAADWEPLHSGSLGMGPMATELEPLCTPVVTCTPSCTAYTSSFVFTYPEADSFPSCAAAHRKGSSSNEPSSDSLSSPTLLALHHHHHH
As to the kind of experiment: nIR fluorescence spectra (1000-1100 nm) of one SWNT/chitosan Ni-NTA array spot before expression, after the His-tag capture protein and after the analyte protein without His-tag; pair label = capture-analyte.

The target in assay [5] is T1, Fos (P01100) without His-tag. The assay is described as above.
For assay [6], the target named is B6. As to the kind of experiment: label-free nIR fluorescence (1045 nm) of SWNT/chitosan Ni-NTA array spots; His-tag capture protein expressed on the spot, then analyte protein without His-tag added; pair label = capture-analyte.
The target of assay [7] is T1, Fos (P01100) without His-tag. Kind of assay: label-free nIR fluorescence (1045 nm) of SWNT/chitosan Ni-NTA array spots; His-tag capture protein expressed on the spot, then cell-free expressed analyte protein without His-tag added; pair label = capture-analyte.
In assay [8] the target is B4. As to the kind of experiment: nIR fluorescence spectra (1000-1100 nm) of one SWNT/chitosan Ni-NTA array spot before expression, after the His-tag capture protein and after the analyte protein without His-tag; pair label = capture-analyte. This is another data set of the same source.
For the assay “His-tag p16 (P42771)”, the target named is B1. As to the kind of experiment: change of the Ni2+-SWNT distance on adding the analyte, calculated by the Förster equation from nIR fluorescence of the SWNT/chitosan Ni-NTA array.
Assay [9] deals with T2, His-tag Fos (P01100). Kind of assay: nIR fluorescence spectra (1000-1100 nm) of one SWNT/chitosan Ni-NTA array spot before expression, after the His-tag capture protein and after the analyte protein without His-tag; pair label = capture-analyte. The source holds these as a separate data set.
For assay [10], the target named is T2, His-tag Fos (P01100). As to the kind of experiment: change of the Ni2+-SWNT distance on adding the analyte, calculated by the Förster equation from nIR fluorescence of the SWNT/chitosan Ni-NTA array.

Regarding B1, the binding result in assay [1] and in [2] was “no binding” throughout.

B2: p16 (P42771) without His-tag (other, human, UniProt P42771 1-156, looked up)
chain: MEPAAGSSMEPSADWLATAAARGRVEEVRALLEAGALPNAPNSYGRRPIQVMMMGSARVAELLLLHGAEPNCADPATLTRPVHDAAREGFLDTLVVLHRAGARLDVRDAWGRLPVDLAEELGHRDVARYLRAAAGGTRGSNHARIDAAEGPSDIPD
notes: also called p16 (noHis)
For B2, the binding result with His-tag Jun (P05412) [3] and in the assay with His-tag Fos (P01100) [4] was “no binding” throughout. Further, in the assay with His-tag CDK4 (P11802), the Δd2 is 0.0634 nm.
In the case of B3, the binding result in [5] and in assay [6] was “no binding” throughout.
Take B4: in assay [7], the binding result is “binds”.

B5: CDK4 (P11802) without His-tag (enzyme, human, UniProt P11802 1-303, looked up)
chain: MATSRYEPVAEIGVGAYGTVYKARDPHSGHFVALKSVRVPNGGGGGGGLPISTVREVALLRRLEAFEHPNVVRLMDVCATSRTDREIKVTLVFEHVDQDLRTYLDKAPPPGLPAETIKDLMRQFLRGLDFLHANCIVHRDLKPENILVTSGGTVKLADFGLARIYSYQMALTPVVVTLWYRAPEVLLQSTYATPVDMWSVGCIFAEMFRRKPLFCGNSEADQLGKIFDLIGLPPEDDWPRDVSLPRGAFPPRGPRPVQSVVPEMEESGAQLLLEMLTFNPHKRISAFRALQHSYLHKDEGNPE
notes: also called CDK4 (noHis)
As to B5, the binding result in the assay with His-tag Jun (P05412) [8] and with His-tag Fos (P01100) [9] was “no binding” each time. Also, the Δd2 with His-tag p16 (P42771) is 0.0517 nm.
For the molecule B6, the Δd2 in the assay with His-tag Fos (P01100) [10] is 0.0236 nm.
